A short description of this data set: Cell lysate reaction of pMT enzymes with psi-ionone, irones quantified by HS-SPME-GCMS. It counts as biochemical. The settings on record: for irone production / methyltransferase activity towards psi-ionone (in words): cell lysate reaction, vs parent or control; for fold change in cis-α-irone produced: AUC vs non-mutated (=1). Here is the method: Using the structure of pMT1 in complex with the cofactor S-adenosyl-L-homocysteine (SAH) and the substrate teleocidin A1 (PDB id: 5GM2) as a template, pMT1 bound to each of the four isomers of α-irone was modelled with the aim of identifying amino acid residues that could be critical to increase cis-α-irone or decrease trans-α-irone production (FIGS. 2d and 2e). […] Site-directed mutagenesis of the 24 residues was carried out with degenerative primers. Subsequently, the mutants of each site were pooled together, and examined if the activity or product-selectivity of the pooled mutants were increased (FIG. 8). This reduced the number of screening reactions to 24, which is manageable when a high-throughput enzymatic assay is not available. […] One residue was chosen and subjected to site-saturation mutagenesis by using degenerative primers containing NNN or NNK. The plasmid library was then transformed into E. coli BL21 (DE3) cells and plated on agar plate containing autoinduction media^19. […] Subsequently, the colonies were collected and resuspended in phosphate saline buffer. Equal number of cells was taken for lysis and cell lysate reactions were carried out in capped SPME-GC vials at 28° C. for 2 days. HS-SPME-GCMS analysis was used to quantify the amount of irones produced by each pooled-colony reaction. […] 24 residues including the control Gly85 (G85m) were subjected to site-saturation mutagenesis, using pMT1 as the template. […] The amount of cis-α-irone produced was estimated based on the area under the gas chromatogram curve (AUC). The fold change is calculated by comparing the AUC of cis-α-irone produced by the mutant enzyme to that of non-mutated.
For each pMT mutant, it was transformed into BL21 and grown in autoinduction media with 5 mM lactose at 20° C. for 36 hrs. Then, cells were pelleted and concentrated 10 times by adding 1 ml of PBS. The OD600 was measured and 40*600 OD*ul cells were transferred into a new 1.5 ml tube. The cells were spun down and resuspended in 600 μl of lysis buffer (1×DNase buffer, 150 mM NaCl, 0.5% glycerol, 1 mg/ml lysozyme and 20U of DNasel). The cells were incubated for 2 hrs at 20° C. with shaking at 300 rpm. Following that, 2 cycles of freeze-thaw was done to completely lyse the cells. At the end of the 2nd thawing, the cell lysate was used to setup a 1 ml reaction in 2 ml GC vials. The reaction consisted of 50 mM Tris (pH7), 10 mM MgCl2, 60 mM NaCl, 0.2 mM SAM and 10 mg/L of psi-ionone and caryophyllene each. To this, 500 μl of cell lysate was added while the remaining 100 μl was used for SDS-PAGE to analyze the total and soluble protein expression. The reaction was incubated for 2 days at 28° C., 300 rpm prior to extraction of cis-α-irone with 500 μl hexane. From this, 20 μl of organic layer was taken into 180 μl hexane for GCMS analysis.
For the mutant pMT activity screening, the reactants and products were analyzed by head space solid phase microextraction (HS-SPME) coupled with an Agilent 5977B gas chromatography (GC) system equipped with Agilent DB-5 ms column (30 m×250 μm×0.25 μm) and mass spectrometry (MS) with high efficiency source. The reaction mixtures were carried out in SPME vials which were incubated at 60° C. for 20 mins to allow the release of volatile compounds. The absorbent fiber (50/30 μm divinylbenzol/carboxen/polydimethyl-SPME fiber, SUPELCO) was then exposed to the headspace of the vial for 20 mins. The extracted analytes were desorbed at the GC inlet at 250° C. for 1 min and injected into GC with a split ratio of 200:1. The GC oven temperature increased from 50° C. to 140° C. at a rate of 10° C./min and held at 140° C. for 10 min. Subsequently, the temperature was increased to 320° C. at a rate of 60° C./min and held at 320° C. for 2 mins.

B1: pMT6: pMT1 with Y200F S182E L273V L180A A202L (protein)
chain: MPQEARTPQQQVTADEVGDWYDKFGEVYHLTLGESVHCGLWFPPDAPVPQDMELVTMSSQAQDRYTDYLIETLDPKAGQHLLDIGCGTGRTALKAARQRGIAVTGVAVSKEQIAAANRLAAGHGLTERLTFEVADAMRLPYEDESFDCAWAIESLCHMDRAKALGEAWRVLKPGGDLLVAEEVVTEELTEPETALFETLFALNVPPRLGEFFDIVSGAGFHTLSLKDLSANLAMTMNVFALGVYSRRAEFTERFGAEFVDGLLAGLGSAQETVIRKTRFFMATLRKPAV
modifications: Modified from pMT1
notes: pMT1 with Y200F S182E L273V L180A A202L
As for B1, the “irone production / methyltransferase activity towards psi-ionone (in words)” value is given as “significantly increased the cis-α-irone concentration”. Also, under “cell lysate with psi-ionone”, the “β-irone share of the irone mixture” value is given as roughly 30%. The “fold change in cis-α-irone produced” value (pMT5_A202 mutants) amounted to 4.3. Also, where the note is “pMT6_C156 mutants”, the “fold change in cis-α-irone produced” value was 1.0. For the same molecule, the “fold change in cis-α-irone produced” value (pMT6_Y65 mutants) is 1.0.

B2: pMT1_E153G: pMT1 with E153G (protein)
chain: MPQEARTPQQQVTADEVGDWYDKFGEVYHLTLGESVHCGLWFPPDAPVPQDMELVTMSSQAQDRYTDYLIETLDPKAGQHLLDIGCGTGRTALKAARQRGIAVTGVAVSKEQIAAANRLAAGHGLTERLTFEVADAMRLPYEDESFDCAWAIGSLCHMDRAKALGEAWRVLKPGGDLLVLESVVTEELTEPETALFETLYAANVPPRLGEFFDIVSGAGFHTLSLKDLSANLAMTMNVFALGVYSRRAEFTERFGAEFVDGLLAGLGSAQETLIRKTRFFMATLRKPAV
For B2, for the setting “pMT1_E153 mutants”, the “fold change in cis-α-irone produced” value is 0.0.

B3: pMT1_Y200G: pMT1 with Y200G (protein)
chain: MPQEARTPQQQVTADEVGDWYDKFGEVYHLTLGESVHCGLWFPPDAPVPQDMELVTMSSQAQDRYTDYLIETLDPKAGQHLLDIGCGTGRTALKAARQRGIAVTGVAVSKEQIAAANRLAAGHGLTERLTFEVADAMRLPYEDESFDCAWAIESLCHMDRAKALGEAWRVLKPGGDLLVLESVVTEELTEPETALFETLGAANVPPRLGEFFDIVSGAGFHTLSLKDLSANLAMTMNVFALGVYSRRAEFTERFGAEFVDGLLAGLGSAQETLIRKTRFFMATLRKPAV
In the case of B3, the “fold change in cis-α-irone produced” value (pMT1_Y200 mutants) is reported as 0.1.

B4: pMT1_M236G: pMT1 with M236G (protein)
chain: MPQEARTPQQQVTADEVGDWYDKFGEVYHLTLGESVHCGLWFPPDAPVPQDMELVTMSSQAQDRYTDYLIETLDPKAGQHLLDIGCGTGRTALKAARQRGIAVTGVAVSKEQIAAANRLAAGHGLTERLTFEVADAMRLPYEDESFDCAWAIESLCHMDRAKALGEAWRVLKPGGDLLVLESVVTEELTEPETALFETLYAANVPPRLGEFFDIVSGAGFHTLSLKDLSANLAMTGNVFALGVYSRRAEFTERFGAEFVDGLLAGLGSAQETLIRKTRFFMATLRKPAV
For the molecule B4, the “fold change in cis-α-irone produced” value (pMT1_M236 mutants) is on record as 0.0.

B5: pMT1_R160G (protein)
chain: MPQEARTPQQQVTADEVGDWYDKFGEVYHLTLGESVHCGLWFPPDAPVPQDMELVTMSSQAQDRYTDYLIETLDPKAGQHLLDIGCGTGRTALKAARQRGIAVTGVAVSKEQIAAANRLAAGHGLTERLTFEVADAMRLPYEDESFDCAWAIESLCHMDGAKALGEAWRVLKPGGDLLVLESVVTEELTEPETALFETLYAANVPPRLGEFFDIVSGAGFHTLSLKDLSANLAMTMNVFALGVYSRRAEFTERFGAEFVDGLLAGLGSAQETLIRKTRFFMATLRKPAV
Consider B5, for which the “fold change in cis-α-irone produced” value (pMT1_R160 mutants) is reported as 0.0.

B6: pMT1_M236F: pMT1 with M236F (protein)
chain: MPQEARTPQQQVTADEVGDWYDKFGEVYHLTLGESVHCGLWFPPDAPVPQDMELVTMSSQAQDRYTDYLIETLDPKAGQHLLDIGCGTGRTALKAARQRGIAVTGVAVSKEQIAAANRLAAGHGLTERLTFEVADAMRLPYEDESFDCAWAIESLCHMDRAKALGEAWRVLKPGGDLLVLESVVTEELTEPETALFETLYAANVPPRLGEFFDIVSGAGFHTLSLKDLSANLAMTFNVFALGVYSRRAEFTERFGAEFVDGLLAGLGSAQETLIRKTRFFMATLRKPAV
Consider B6, for which the “fold change in cis-α-irone produced” value (pMT1_M236 mutants) came out at 0.0.

B7: pMT9: pMT1 with Y200F S182E L273V L180A A202L Y65F C156A (protein)
chain: MPQEARTPQQQVTADEVGDWYDKFGEVYHLTLGESVHCGLWFPPDAPVPQDMELVTMSSQAQDRYTDYLIETLDPKAGQHLLDIGCGTGRTALKAARQRGIAVTGVAVSKEQIAAANRLAAGHGLTERLTFEVADAMRLPYEDESFDCAWAIESLAHMDRAKALGEAWRVLKPGGDLLVAEEVVTEELTEPETALFETLFALNVPPRLGEFFDIVSGAGFHTLSLKDLSANLAMTMNVFALGVYSRRAEFTERFGAEFVDGLLAGLGSAQETVIRKTRFFMATLRKPAV
modifications: Modified from pMT1
notes: pMT1 with Y200F S182E L273V L180A A202L Y65F C156A
Regarding B7, the “irone production / methyltransferase activity towards psi-ionone (in words)” value was “increased both α- and β-irone production”.

B8: pMT1_R160H: pMT1 with R160H (protein)
chain: MPQEARTPQQQVTADEVGDWYDKFGEVYHLTLGESVHCGLWFPPDAPVPQDMELVTMSSQAQDRYTDYLIETLDPKAGQHLLDIGCGTGRTALKAARQRGIAVTGVAVSKEQIAAANRLAAGHGLTERLTFEVADAMRLPYEDESFDCAWAIESLCHMDHAKALGEAWRVLKPGGDLLVLESVVTEELTEPETALFETLYAANVPPRLGEFFDIVSGAGFHTLSLKDLSANLAMTMNVFALGVYSRRAEFTERFGAEFVDGLLAGLGSAQETLIRKTRFFMATLRKPAV
B8: the “fold change in cis-α-irone produced” value (pMT1_R160 mutants) came out at 1.0.

B9: pMT1_R160F: pMT1 with R160F (protein)
chain: MPQEARTPQQQVTADEVGDWYDKFGEVYHLTLGESVHCGLWFPPDAPVPQDMELVTMSSQAQDRYTDYLIETLDPKAGQHLLDIGCGTGRTALKAARQRGIAVTGVAVSKEQIAAANRLAAGHGLTERLTFEVADAMRLPYEDESFDCAWAIESLCHMDFAKALGEAWRVLKPGGDLLVLESVVTEELTEPETALFETLYAANVPPRLGEFFDIVSGAGFHTLSLKDLSANLAMTMNVFALGVYSRRAEFTERFGAEFVDGLLAGLGSAQETLIRKTRFFMATLRKPAV
Take B9: where the note is “pMT1_R160 mutants”, the “fold change in cis-α-irone produced” value is recorded as 0.0.

B10: pMT1_E153F: pMT1 with E153F (protein)
chain: MPQEARTPQQQVTADEVGDWYDKFGEVYHLTLGESVHCGLWFPPDAPVPQDMELVTMSSQAQDRYTDYLIETLDPKAGQHLLDIGCGTGRTALKAARQRGIAVTGVAVSKEQIAAANRLAAGHGLTERLTFEVADAMRLPYEDESFDCAWAIFSLCHMDRAKALGEAWRVLKPGGDLLVLESVVTEELTEPETALFETLYAANVPPRLGEFFDIVSGAGFHTLSLKDLSANLAMTMNVFALGVYSRRAEFTERFGAEFVDGLLAGLGSAQETLIRKTRFFMATLRKPAV
Turning to B10, the “fold change in cis-α-irone produced” value (pMT1_E153 mutants) was 0.0.

B11: pMT8: pMT1 with Y200F S182E L273V L180A A202L C156P (protein)
chain: MPQEARTPQQQVTADEVGDWYDKFGEVYHLTLGESVHCGLWFPPDAPVPQDMELVTMSSQAQDRYTDYLIETLDPKAGQHLLDIGCGTGRTALKAARQRGIAVTGVAVSKEQIAAANRLAAGHGLTERLTFEVADAMRLPYEDESFDCAWAIESLPHMDRAKALGEAWRVLKPGGDLLVAEEVVTEELTEPETALFETLFALNVPPRLGEFFDIVSGAGFHTLSLKDLSANLAMTMNVFALGVYSRRAEFTERFGAEFVDGLLAGLGSAQETVIRKTRFFMATLRKPAV
modifications: Modified from pMT1
notes: pMT1 with Y200F S182E L273V L180A A202L C156P
In the case of B11, the “irone production / methyltransferase activity towards psi-ionone (in words)” value is reported as “further improved the TTN of the enzyme”. In addition, the “fold change in cis-α-irone produced” value (pMT6_C156 mutants) came out at 1.1.

For the origin of these results see patent US20240240209A1, “SYNTHESIS OF ENANTIOPURE CIS-A-IRONE FROM A RENEWABLE CARBON SOURCE” (Agency for Science, Technology and Research, priority 2021, published 2024).
